Holding throughout (type): binding
Assay [1] is described as follows: Probe fluorescence ratio response to stearic acid relative to ADIFAB2. As to conditions: response relative to ADIFAB2. The source says: (§1) In an alternate preferred embodiment, the protein is rI-FABP that has Ala substituted for Leu at position 72 (rI-FABP-L72A) with the resulting probe named ADIFAB2. […] Other probes useful in embodiments of the invention are shown in Tables 1-6 and are also described in U.S. application Ser. No. 11/085,792, filed Mar. 21, 2005 which is incorporated herein by reference. The indicated substitutions are with reference to the ADIFAB protein of SEQ ID NO: 2.
(§2) ADIFAB2 also has an altered spectral response, making it especially useful for measurements of FFAu in blood samples (Apple et al, Clinical Proteomics, (2004) 1:41-44, U.S. patent application Ser. No. 10/670,958). The wavelengths at the maximum intensities emitted by these fluorescently-labeled I-FABP's in the absence of FFA is about 420 to 480 nm. The emission wavelengths at the maximum intensities emitted by these fluorescently-labeled I-FABP's with FFA bound are between about 495 to 580 nm. Experiments typically involve measuring the fluorescence response within both emission maxima or at wavelengths for which the effect of interfering molecules such as hemoglobin can be eliminated as described in U.S. application Ser. No. 10/670958 and PCT/US2004/030521 and the calculation of the ratio ‘R’ of the two fluorescence intensities. The baseline value for this ratio, measured in the absence of analyte, is designated R0.
(§3) The intensity ratio (“R” value) is determined as follows. The ratio is calculated using the following formula: R=Fλ1/Fλ2 wherein, Fλ1 is the measured fluorescence intensities (intensity of sample with probe present minus intensity of sample without probe present) at wavelength 1 and Fλ2 is the measured fluorescence intensities (intensity of sample with probe present minus intensity of sample without probe present) at wavelength 2. Then, for a given probe, ΔR, the difference in R value between the measurement in the presence of the test compound (agent) and in the absence of the test compound (agent), is calculated as follows: ΔR=R+agent−R0 In some embodiments, the ΔR value may then be compared to some reference, for example, an agent with a known affinity for a given probe, by ΔR/ΔRreference. Measurements of fluorescence intensities are obtained using standard techniques.

Assay [2] in a line: Probe fluorescence ratio response to palmitic acid relative to ADIFAB2. The note with it: response relative to ADIFAB2. The method in brief:
(§4)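 Each fatty acid's response was expressed relative to ADIFAB2, the rI-FABP-L72A probe, as ΔR/ΔRreference. ΔR is the change in the background-corrected two-wavelength intensity ratio R=Fλ1/Fλ2 from its analyte-free baseline R0. Emission was read near about 420-480 nm for unbound and about 495-580 nm for FFA-bound probe.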

A short description of assay [3]: Probe fluorescence ratio response to oleic acid relative to ADIFAB2. As to conditions: response relative to ADIFAB2. The method in brief:
as §4

The nature of assay [4]: Probe fluorescence ratio response to linolenic acid relative to ADIFAB2. The note with it: response relative to ADIFAB2. The method in brief: as §4
A short description of assay [5]: Probe fluorescence ratio response to palmitoleic acid relative to ADIFAB2. As to conditions: response relative to ADIFAB2.
Text: as §1, §2, §3

Assay [6] in a line: Probe fluorescence ratio response to arachidonic acid relative to ADIFAB2. The note with it: arachidonic acid; response relative to ADIFAB2. The method in brief: as §4
Assay [7] can be described thus: Probe fluorescence ratio response to linoleic acid relative to ADIFAB2. The note with it: response relative to ADIFAB2. The method in brief:
as §4

B1: 72A 73W 74S (protein, listed as Rattus norvegicus)
chain: AFDGTWKVDRNENYEKFMEKMGINVVKRKLGAHDNLKLTITQEGNKFTVKESSNFRNIDVVFELGVDFAYSAWSGTELTGTWTMEGNKLVGKFKRVDNGKELIAVREISGNELIQTYTYEGVEAKRIFKKE
modifications: PEPTIDE (1)...(131) wild-type rat intestinal fatty acid binding protein
For B1, the “DR/DR SA” value in assay [1] was determined as 1.095. In assay [2], the “DR/DR PA” value stood at 4.039. Further, the “DR/DR OA” value in assay [3] came to 3.155. Also, the “DR/DR LNA” value in assay [4] amounted to 4.401. Besides, in assay [5], the “DR/DR POA” value is 4.864. For the same molecule, the “DR/DR AA” value in assay [6] stood at 3.211. Besides, in assay [7], the “DR/DR LA” value was 3.806.

B2: 72T 74V (protein, listed as Rattus norvegicus)
chain: AFDGTWKVDRNENYEKFMEKMGINVVKRKLGAHDNLKLTITQEGNKFTVKESSNFRNIDVVFELGVDFAYSTAVGTELTGTWTMEGNKLVGKFKRVDNGKELIAVREISGNELIQTYTYEGVEAKRIFKKE
modifications: PEPTIDE (1)...(131) wild-type rat intestinal fatty acid binding protein
Consider B2, for which the “DR/DR SA” value in assay [1] was determined as 1.781. The “DR/DR PA” value in assay [2] is 3.149. Further, the “DR/DR OA” value in assay [3] is reported as 2.957. In assay [4], the “DR/DR LNA” value came out at 3.680. The “DR/DR POA” value in assay [5] turned out to be 4.074. Also, the “DR/DR AA” value in assay [6] is given as 2.680. Besides, the “DR/DR LA” value in assay [7] was 3.630.

B3: 72S 73W 74S (protein, listed as Rattus norvegicus)
chain: AFDGTWKVDRNENYEKFMEKMGINVVKRKLGAHDNLKLTITQEGNKFTVKESSNFRNIDVVFELGVDFAYSSWSGTELTGTWTMEGNKLVGKFKRVDNGKELIAVREISGNELIQTYTYEGVEAKRIFKKE
modifications: PEPTIDE (1)...(131) wild-type rat intestinal fatty acid binding protein
In the case of B3, in assay [1], the “DR/DR SA” value was determined as 1.106. In assay [2], the “DR/DR PA” value was determined as 3.536. Also, the “DR/DR OA” value in assay [3] was determined as 2.863. In assay [4], the “DR/DR LNA” value came out at 4.147. Also, the “DR/DR POA” value in assay [5] is 4.656. In assay [6], the “DR/DR AA” value worked out at 3.545. In addition, in assay [7], the “DR/DR LA” value turned out to be 3.787.

B4: 72T 73W 74E (protein, listed as Rattus norvegicus)
chain: AFDGTWKVDRNENYEKFMEKMGINVVKRKLGAHDNLKLTITQEGNKFTVKESSNFRNIDVVFELGVDFAYSTWEGTELTGTWTMEGNKLVGKFKRVDNGKELIAVREISGNELIQTYTYEGVEAKRIFKKE
modifications: PEPTIDE (1)...(131) wild-type rat intestinal fatty acid binding protein
As for B4, the “DR/DR SA” value in assay [1] is given as 0.877. Also, the “DR/DR PA” value in assay [2] came to 3.842. Besides, the “DR/DR OA” value in assay [3] was determined as 2.200. Further, in assay [4], the “DR/DR LNA” value is 3.818. The “DR/DR POA” value in assay [5] stood at 5.353. Further, the “DR/DR AA” value in assay [6] is recorded as 2.442. Moreover, the “DR/DR LA” value in assay [7] is reported as 3.254.

B5: 21F 78V 102V 72A (protein, listed as Rattus norvegicus)
chain: AFDGTWKVDRNENYEKFMEKFGINVVKRKLGAHDNLKLTITQEGNKFTVKESSNFRNIDVVFELGVDFAYSAADGTEVTGTWTMEGNKLVGKFKRVDNGKEVIAVREISGNELIQTYTYEGVEAKRIFKKE
modifications: PEPTIDE (1)...(131) wild-type rat intestinal fatty acid binding protein
For the molecule B5, the “DR/DR SA” value in assay [1] was determined as 3.120. Further, the “DR/DR PA” value in assay [2] amounted to 2.756. The “DR/DR OA” value in assay [3] worked out at 4.223. Further, in assay [4], the “DR/DR LNA” value is listed as 3.775. The “DR/DR POA” value in assay [5] was 3.365. In assay [6], the “DR/DR AA” value amounted to 4.511. In addition, the “DR/DR LA” value in assay [7] is listed as 4.204.

B6: 72T 73V 74L (protein, listed as Rattus norvegicus)
chain: AFDGTWKVDRNENYEKFMEKMGINVVKRKLGAHDNLKLTITQEGNKFTVKESSNFRNIDVVFELGVDFAYSTVLGTELTGTWTMEGNKLVGKFKRVDNGKELIAVREISGNELIQTYTYEGVEAKRIFKKE
modifications: PEPTIDE (1)...(131) wild-type rat intestinal fatty acid binding protein
In the case of B6, the “DR/DR SA” value in assay [1] is listed as 1.411. The “DR/DR PA” value in assay [2] was found to be 2.674. Moreover, the “DR/DR OA” value in assay [3] was 2.832. In addition, in assay [4], the “DR/DR LNA” value came to 3.508. In addition, in assay [5], the “DR/DR POA” value was found to be 3.642. The “DR/DR AA” value in assay [6] is reported as 2.774. Moreover, the “DR/DR LA” value in assay [7] stood at 3.165.

B7: 72S 73W 74N (protein, listed as Rattus norvegicus)
chain: AFDGTWKVDRNENYEKFMEKMGINVVKRKLGAHDNLKLTITQEGNKFTVKESSNFRNIDVVFELGVDFAYSSWNGTELTGTWTMEGNKLVGKFKRVDNGKELIAVREISGNELIQTYTYEGVEAKRIFKKE
modifications: PEPTIDE (1)...(131) wild-type rat intestinal fatty acid binding protein
Consider B7, for which the “DR/DR SA” value in assay [1] was found to be 1.255. For the same molecule, in assay [2], the “DR/DR PA” value amounted to 3.333. Moreover, the “DR/DR OA” value in assay [3] was 3.490. In assay [4], the “DR/DR LNA” value was found to be 4.220. For the same molecule, in assay [5], the “DR/DR POA” value turned out to be 4.867. The “DR/DR AA” value in assay [6] worked out at 3.770. For the same molecule, the “DR/DR LA” value in assay [7] was 3.977.

B8: 72T 73V 74V (protein, listed as Rattus norvegicus)
chain: AFDGTWKVDRNENYEKFMEKMGINVVKRKLGAHDNLKLTITQEGNKFTVKESSNFRNIDVVFELGVDFAYSTVVGTELTGTWTMEGNKLVGKFKRVDNGKELIAVREISGNELIQTYTYEGVEAKRIFKKE
modifications: PEPTIDE (1)...(131) wild-type rat intestinal fatty acid binding protein
For the molecule B8, the “DR/DR SA” value in assay [1] was 1.918. Also, the “DR/DR PA” value in assay [2] came out at 2.987. Further, the “DR/DR OA” value in assay [3] is reported as 3.166. Besides, the “DR/DR LNA” value in assay [4] amounted to 3.618. The “DR/DR POA” value in assay [5] turned out to be 4.015. The “DR/DR AA” value in assay [6] was 3.237. Further, in assay [7], the “DR/DR LA” value was 3.502.

B9: 73W 72A 74F (protein, listed as Rattus norvegicus)
chain: AFDGTWKVDRNENYEKFMEKMGINVVKRKLGAHDNLKLTITQEGNKFTVKESSNFRNIDVVFELGVDFAYSAWFGTELTGTWTMEGNKLVGKFKRVDNGKELIAVREISGNELIQTYTYEGVEAKRIFKKE
modifications: PEPTIDE (1)...(131) wild-type rat intestinal fatty acid binding protein
For the molecule B9, the “DR/DR SA” value in assay [1] stood at 1.485. Moreover, in assay [2], the “DR/DR PA” value is on record as 3.264. Moreover, the “DR/DR OA” value in assay [3] came to 3.255. For the same molecule, the “DR/DR LNA” value in assay [4] is reported as 3.875. Besides, the “DR/DR POA” value in assay [5] was determined as 5.256. Further, the “DR/DR AA” value in assay [6] is on record as 3.378. In addition, the “DR/DR LA” value in assay [7] stood at 3.718.

B10: 72G 73W (protein, listed as Rattus norvegicus)
chain: AFDGTWKVDRNENYEKFMEKMGINVVKRKLGAHDNLKLTITQEGNKFTVKESSNFRNIDVVFELGVDFAYSGWDGTELTGTWTMEGNKLVGKFKRVDNGKELIAVREISGNELIQTYTYEGVEAKRIFKKE
modifications: PEPTIDE (1)...(131) wild-type rat intestinal fatty acid binding protein
For the molecule B10, the “DR/DR SA” value in assay [1] was 0.294. The “DR/DR PA” value in assay [2] came to 2.968. The “DR/DR OA” value in assay [3] was found to be 1.106. Besides, the “DR/DR LNA” value in assay [4] is given as 3.637. Moreover, the “DR/DR POA” value in assay [5] came to 4.082. The “DR/DR AA” value in assay [6] is listed as 2.260. In addition, the “DR/DR LA” value in assay [7] was found to be 2.698.

For the origin of these results see patent US20060257938A1, “Method of screening for drugs that block ligand binding to a lipid binding protein” (priority 2005, published 2006).
